In the domain aggregation screens of Martell et al. (2025):

Assay: soluble fraction after stress (log2 fold change); higher = more stays soluble; pooled small domains, quantitative proteomics
Settings: stress: 50 degC
How it was run: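 The measure of aggregation propensity here is the base-two logarithm of the fold change in the soluble amount of each protein after stress. A higher value means more of that protein stays in solution. Stress was applied at 50°C to pooled libraries of small protein domains, read out by high-throughput quantitative proteomics.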

| Sequence | soluble fraction (log2) |
| --- | --- |
| HMDYQYILVDVKDRIATVTINRPEYSNAFARESYYEIADAMNTLGARDDVGVIVITGAGKHFSAGGDIKRF | -0.534 |
| HMAETLRLVGATNLNTLARARHPDDLAARNEFRRAIAQANPALFAGKSKVGSVSLPAGTVLALPPEV | 0.184 |
| HMAHESYVKEQLLLSLTNHEDPIMQISLIEQLTKMHERNIIHELEKLTVDVQTNEEVKVQAYASLLILS | -0.53 |
| HMINIFKVKKAMEEIFASEWEDSPYTDQKISQILWSRGFSVSTGLVEKYRGQMGVPDANSRLNLN | -2.38 |
| HMSVPNVVGRDQVEASSLLESAGFKVSVKQSYSDSVEQGKVISQSPSGSTTVSPGSTVTITVSQ | 0.122 |
| HMEGGLIMDRIEKGLQSGVMPDLRGLNLKDALYLLESYVQVQVIGSGGVIKQSIKTGDKFIMGSVIKLEL | -0.0813 |
| HMSQRINLNSASIEDMQSLDISNEKIDSIIDYRNRYGNIHNIYELLKIPGITIGDIHSIRNAVTVEIPH | -0.112 |
| HMKTEIKSPLPGIVLKIFVRTGEYVDKNQRLFSLEAMKMENEIKAERAGVIAGIRISEGQSVLQDEVIMEM | -0.297 |
| HMNRPQDLGEPYDGQFREHPEAWAFYAAQSPSYRRSASWWVLGAKQEVTRQRRLAALIDASAQGTRIPALT | -1.09 |
| HMNIDQAFISDLERMIMPDISKYELMDIISIMENSGFTIKVEGTGNEVRQVIKPGSKLKKGQKIKIKL | -1.83 |
| HMLPELIVTTKKGVTVTVTNGVITYSATSNGKATFTVPNYGKWTVSATINGTVISKVVDVTEAKQIPVLLG | 0.196 |
| HMSVDDEQLLKIIDDIFQQNPQAVTDAKTDSNAIHFLIGQVMKETKGHADHAISKEIIEKKLS | 0.00481 |
| HMNNDFVERLRKLFGHASMAEIARRIDVPHATIRNYFQGRLPAPEVLIKLARETGVSLNWLLTGEGKMFA | -0.253 |
| HMLELTGEEEFVIRTLTRQGDLHINALVVETDIPINRMISLLFELEMKGVVKALVGGVYHLLG | -2.04 |
| HMNVPLYIMIESAVEQRLLDGTYQVGKMIPTEFELMDEFSVSRETVRKAINLLVQRGKLEKKRGIGTFVAS | -2.92 |
| HMEDLAERLDNLSTMYAKMDPVRAAQVLLESKNKSENIEVLKRLKPKSLGLILENMPPREAYDYVSELQ | 0.0712 |
| HMGIDISAFSETALQVLRLQAAGYTAKEISEKLHITPRTVKYHASQNYRKLDAKNLVDAVQIAQALHI | -1.26 |
| HMPPNHADLKSSGLKATLPRLKILEIFQNSQVRHLSAEDVYKLLLAENLDVGLATVYRVLTQFEQAGL | -0.475 |
| HMIGAKVLVNGQLHRDSYGEGPGQTESNATRLVNYINMKGSHPYHVTTLDGGWRGWVTADSVQV | 0.223 |

| Sequence | soluble fraction (log2) |
| --- | --- |
| HMTNALDMMKTMDSDAYTKYQKISKESSNEDRQLNELKYITNWYAGAVKKNPSMVDDYEKQKEADS | 0.159 |
| HMTNTDALINRAAKVVEEINPDKNTGRVSIDGDLWRAKSSSGELIEQNKQVIVISIESTIVTVKI | -0.343 |
| HMAAHHIILEEREQLSVSGVEEVESFDENTIVMLTNRGTLIVRGEELHIEKLSLDGGDLRVEGSIDSLTYE | -0.274 |
| HMSNPPIRIGKKALHELLTTWLSLLSRDGVAYLVVQKNLGADSLTAWLRDQGFPSEKIASKKGFRIIEVH | -0.245 |
| HMIGIEALAGEIDRVRQVLTGGGGLSDVQLFSQLKALNEIKAALGASPDPRAPELVQRVDQLLEAAFRS | -0.0467 |
| HMLPIGSSREQVISSLNKMHQDYKEEGNFIYAGYFKQGLPLVPSPRISIALQFNETAHLEKIDATLNYV | -0.305 |
| HMGEPVNSPMPGTILRVEVTQGAAVKEGQLLVVLEAMKMENEILAPKDGTVAQVVVQKGSHVETGSPLIVL | -0.217 |
| HMDFLKSVDLSKYSKVESLILSHLSKGDFDIDDFIRSFSLGTDEVTRAIVSLEIEGIILRKGNRIFRKKS | -0.0402 |
| HMNDTPPELRAALDLLGLKWPLASVELRARYKDLAKQHHPDATGGDKQAEERLKDINRAYSLLKHRLAKQ | -0.07 |
| HMPNTLAGIERYLGSGMVKGIGPVYASRLVSAFGTAVFDVIEQTPERLREIDGIGEKRTRKITSGWADQ | -0.127 |
| HMKVPDVQYMNKDSAIEALTANELKYTIVEAENENVAAGVVISQSVERDSQVAPGTSVELVVSTG | 0.0357 |
| HMTKIDYSINQIYSLRNIENITIVLKDKRSFTGKILKIYWQNGSKIILFTTETRNYKFKEYEISEIYKS | -0.268 |
| HMSSKIKYSEFITMLDKGEVESVVLKSDTLTITLKHGTGVAAQTKTTTLMEDLSELTKRLEKAGIKDFDK | 0.0396 |
| HMGEAAIYRINILINNLNVRSGPGTLYPRLRRADFPGEYDIFEEKNGFGRISNTKSEWVSLNTQYVQRLT | -0.549 |
| HMANYYEILGVKHDATEAEIKAAYKQAAKSAHPDAGGSNEKMQEVNAAWEVLGNAQKRAEYDARMA | 0.0756 |
| HMTKDEIIIQSIIDAAKKLMQQYGLNKTTMEDIAKEAGKGKSTLYHYFKSKEEIFDQVINQEID | -0.0722 |
| HMSKKIVLPAAITVKKFSETLDMPLGTVISELMKNGILATINERIDFETASIIAQDLGYEVSEEV | 0.173 |
| HMQGEVPYSQFLTEVDRGDVQSVVIEGNNISGFYKNSSTAFTVVAPDDPKLVERLMEQGVEVKARPV | 0.0205 |
